The values below come from patent publication US20230151373A1, “CHIMERIC POLYPEPTIDE FOR REGULATING IMMUNE CELLS” (STICHTING HET NEDERLANDS KANKER INSTITUUT-ANTONI VAN …, priority 2019, published 2023).

For this test, the target named is CD3 ζ chain (phosphorylated ITAMs) of the TCR complex (human) (UniProt P20963). Briefly: cell-based or functional assay.
CD3 ζ chain (phosphorylated ITAMs) of the TCR complex (human), sequence (P20963 22-164, one chain of several): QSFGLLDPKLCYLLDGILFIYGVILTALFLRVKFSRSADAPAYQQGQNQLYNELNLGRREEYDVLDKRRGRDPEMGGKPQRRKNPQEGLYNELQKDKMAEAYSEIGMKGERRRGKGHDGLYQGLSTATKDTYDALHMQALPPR

In turn, “Zap70 2×SH2 domains-PD1 tail fusion protein (from UniProt P43403 1-264; Q15116 192-288)” had a reduction in percentage responding cells (IFNγ), CDK4 TCR T cells co-cultured with 10 nM peptide loaded T2 cells, relative to vector control of 104 fold; a reduction in percentage responding cells (IL-2), CDK4 TCR T cells co-cultured with 10 nM peptide loaded T2 cells, relative to vector control of 110 fold; a reduction in percentage responding cells (TNFα), CDK4 TCR T cells co-cultured with 10 nM peptide loaded T2 cells, relative to vector control of 81 fold; a reduction in percentage responding cells (cell surface LAMP1), CDK4 TCR T cells co-cultured with 10 nM peptide loaded T2 cells, relative to vector control of 40 fold.
